Results on one substance are retold here after patent US20050186180A1.

This test deals with murine B7-2 (recombinant, expressed from rV-B7-2 in BSC-1 cells) (murine) (UniProt P42082). Nature of the test: flow cytometry, BSC-1 cells infected with rV-B7-2 (10 MOI), FITC-conjugated antibody. Background: A flow cytometer gives signals particle by particle.
Sequence of UniProt P42082 (P42082 24-309): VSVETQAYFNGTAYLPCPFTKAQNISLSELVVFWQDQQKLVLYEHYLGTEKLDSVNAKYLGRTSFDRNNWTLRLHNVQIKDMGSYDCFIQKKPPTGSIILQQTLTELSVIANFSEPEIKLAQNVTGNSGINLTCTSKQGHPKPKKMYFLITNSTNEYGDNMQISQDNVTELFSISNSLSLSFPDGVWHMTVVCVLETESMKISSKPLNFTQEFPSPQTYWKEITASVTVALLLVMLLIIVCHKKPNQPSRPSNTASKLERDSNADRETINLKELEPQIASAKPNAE

Turning to “Rat-anti-mouse B7-2 (GL-1) monoclonal antibody (Pharmingen)”, the mean fluorescence came to 1800 and the percent of cells positive is 98.8%.
